Measured values taken from the supplement of paper PMC10567573.

B1: CHIT1 (parent)
chain: CSWKGATKQRIQDQKVPYIFRDNQ
B2: SMARCE1 (parent)
chain: YHNSPAYLAYINAKSRAEAALEEE

Variants of: B1
Experiment: protein stability index of a GFP-peptide fusion (GPS, HEK-293T) (PSI 1-6); higher = more stable
Conditions: c terminus: a fixed tail appended
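Further: lentivirally expressed fusions sorted by FACS into six bins by GFP to DsRed ratio, PSI derived from sequencing read proportions per bin multiplied by bin number.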

In order of rising protein stability index:
1. Q9C  1.07
2. Q12W  1.12
3. T7W  1.12
4. D13W  1.25
5. K4F  1.26
6. G5F  1.37
7. Q9W  1.39
8. K15V  1.39
9. S2Y  1.49
10. D13I  1.5
11. K15F  1.54
12. G5C  1.57
13. D13N  1.61
14. R10I  1.64
15. R10W  1.67
16. Q12F  1.69
17. D13R  1.69
18. D13S  1.73
19. S2I  1.74
20. C1F  1.75
21. D13L  1.75
22. K8C  1.76
23. Q9L  1.78
24. D13H  1.78
25. D13F  1.8
26. A6G  1.82
27. Q12R  1.83
28. D13Y  1.83
29. D13P  1.83
30. D13K  1.84
31. K4L  1.84
32. S2V  1.85
33. Q14K  1.87
34. Q14Y  1.92
35. S2Q  1.93
36. Q9F  1.94
37. Q14V  1.94
38. K4A  1.94
39. K4V  1.94
40. C1Y  1.96
41. Q14W  1.99
42. S2R  2
43. S2K  2.01
44. K8M  2.01
45. Q12I  2.02
46. G5M  2.02
47. K8W  2.03
48. Q14L  2.04
49. K4I  2.04
50. S2C  2.06
51. A6C  2.06
52. W3C  2.06
53. I11W  2.07
54. S2G  2.07
55. K8T  2.07
56. Q12H  2.09
57. I11P  2.1
58. G5I  2.11
59. K4W  2.12
60. G5Y  2.12
61. K8Q  2.12
62. A6F  2.14
63. D13G  2.15
64. K15G  2.15
65. K8I  2.15
66. Q9Y  2.17
67. S2T  2.17
68. Q12L  2.18
69. S2L  2.18
70. K15Q  2.19
71. K4Y  2.2
72. K15L  2.2
73. Q14M  2.21
74. K8F  2.21
75. A6K  2.23
76. K8P  2.23
77. Q9P  2.25
78. A6V  2.25
79. C1W  2.26
80. K15H  2.26
81. A6T  2.27
82. Q12N  2.28
83. T7M  2.28
84. K15M  2.28
85. Q9M  2.29
86. T7C  2.29
87. K15S  2.29
88. I11C  2.3
89. T7I  2.3
90. Q12G  2.31
91. A6Y  2.31
92. D13Q  2.31
93. K15R  2.31
94. I11G  2.32
95. A6I  2.32
96. G5V  2.32
97. Q14R  2.34
98. Q14I  2.35
99. K4C  2.36
100. Q9R  2.37
101. Q14S  2.37
102. Q12Y  2.38
103. R10G  2.38
104. G5R  2.38
105. G5P  2.38
106. S2A  2.39
107. A6S  2.4
108. T7K  2.4
109. K8Y  2.4
110. R10L  2.41
111. Q9E  2.42
112. S2H  2.42
113. D13V  2.42
114. T7V  2.42
115. R10V  2.43
116. S2M  2.43
117. A6L  2.43
118. K4E  2.43
119. Q9K  2.44
120. Q9V  2.44
121. I11F  2.44
122. K15I  2.44
123. K8S  2.44
124. Q12E  2.45
125. R10P  2.47
126. D13C  2.47
127. Q14F  2.47
128. K15T  2.48
129. K4T  2.49
130. Q9A  2.5
131. R10F  2.5
132. I11M  2.5
133. K4N  2.5
134. I11Y  2.51
135. A6H  2.51
136. T7A  2.51
137. D13E  2.52
138. T7L  2.52
139. S2N  2.53
140. G5T  2.53
141. K8H  2.53
142. R10Y  2.54
143. A6Q  2.54
144. K8N  2.54
145. I11N  2.56
146. D13T  2.56
147. Q9S  2.57
148. Q9D  2.58
149. K8A  2.58
150. G5H  2.59
151. K8D  2.59
152. Q12S  2.6
153. R10M  2.6
154. Q14C  2.6
155. K4M  2.6
156. K4S  2.6
157. Q9N  2.62
158. C1I  2.62
159. T7N  2.62
160. R10C  2.63
161. A6M  2.64
162. Q9H  2.66
163. I11T  2.66
164. Q12A  2.67
165. R10K  2.67
166. G5D  2.67
167. T7F  2.68
168. K4G  2.68
169. I11K  2.69
170. S2W  2.69
171. G5N  2.69
172. W3M  2.69
173. K4D  2.7
174. R10D  2.71
175. W3L  2.71
176. A6R  2.73
177. C1L  2.74
178. T7P  2.74
179. T7R  2.75
180. K4R  2.75
181. K15N  2.75
182. T7G  2.77
183. G5L  2.77
184. K8L  2.77
185. Q12P  2.78
186. W3F  2.78
187. W3A  2.78
188. C1T  2.79
189. A6E  2.79
190. Q14G  2.79
191. Q14E  2.79
192. G5K  2.79
193. Q9T  2.8
194. R10Q  2.8
195. R10S  2.81
196. C1Q  2.81
197. D13A  2.81
198. Q14D  2.81
199. K8R  2.81
200. A6N  2.83
201. I11A  2.85
202. C1R  2.86
203. C1P  2.86
204. Q9G  2.88
205. C1N  2.88
206. Q14T  2.88
207. C1M  2.89
208. T7Q  2.89
209. Q12T  2.9
210. C1V  2.91
211. D13M  2.91
212. Q14N  2.91
213. T7H  2.91
214. Q9I  2.92
215. W3N  2.93
216. R10H  2.94
217. W3I  2.95
218. K8G  2.95
219. I11V  2.98
220. Q14P  2.98
221. K15C  2.99
222. I11S  3.01
223. S2P  3.02
224. W3Y  3.04
225. A6P  3.05
226. S2D  3.06
227. Q14H  3.06
228. K4Q  3.06
229. K4H  3.06
230. W3H  3.06
231. Q12D  3.08
232. C1H  3.08
233. K15D  3.09
234. C1E  3.13
235. V16C  3.13
236. I11L  3.14
237. W3S  3.14
238. I11R  3.15
239. C1A  3.17
240. W3G  3.19
241. K8E  3.19
242. S2F  3.22
243. K15P  3.22
244. W3T  3.23
245. K8V  3.23
246. S2E  3.25
247. C1D  3.26
248. G5S  3.28
249. T7D  3.29
250. T7S  3.32
251. I11E  3.33
252. K4P  3.33
253. G5E  3.34
254. C1K  3.36
255. T7E  3.41
256. I11H  3.42
257. G5W  3.45
258. R10N  3.46
259. Q14A  3.46
260. W3V  3.46
261. C1G  3.47
262. A6D  3.47
263. I11Q  3.54
264. R10A  3.57
265. C1S  3.58
266. W3Q  3.6
267. W3K  3.63
268. R10T  3.68
269. W3R  3.71
270. W3D  3.73
271. K15Y  3.73
272. I11D  3.74
273. Q12M  3.82
274. R10E  3.87
275. T7Y  3.94
276. W3E  4.03
277. A6W  4.23

Variants of: B2
Experiment: as above
Conditions: c terminus: a fixed tail appended

In order of rising protein stability index:
1. N3C  1.34
2. A9L  1.5
3. A9E  1.56
4. S15Y  1.62
5. E24W  1.63
6. A17R  1.68
7. A9K  1.68
8. H2T  1.7
9. E24Y  1.71
10. A6C  1.77
11. L8P  1.81
12. A13N  1.9
13. E22Q  1.91
14. S4P  1.91
15. A19P  1.92
16. A9R  1.96
17. E18S  2
18. S4I  2
19. A6M  2.07
20. K14C  2.14
21. P5D  2.15
22. E24T  2.17
23. E24V  2.19
24. A9G  2.19
25. A6W  2.21
26. N3E  2.22
27. A6Y  2.23
28. A17F  2.24
29. Y10C  2.25
30. E22R  2.25
31. S15V  2.26
32. N3R  2.26
33. N3G  2.28
34. E22W  2.29
35. I11R  2.29
36. A19F  2.31
37. A13V  2.33
38. E18F  2.37
39. E24C  2.38
40. S15L  2.42
41. A19N  2.43
42. L21N  2.46
43. K14N  2.57
44. E24F  2.59
45. E22I  2.59
46. P5M  2.65
47. Y7A  2.66
48. A13Q  2.83
49. H2V  2.84
50. Y7V  2.91
51. E18K  3.05
52. Y7D  3.12
53. Y10R  3.34
54. L21I  3.51
55. Y10A  3.76
56. Y1N  4.85
57. Y1P  5.16
